Laboratory results: paper doi:10.1101/2023.03.30.534746

Assays:
[1] = target: IRE1α LD 352LNYL355-GSGS mutant (human) (UniProt O75460); experiment: AUC
[2] = target: IRE1α LD 312TLPL315-GSGS mutant (human) (UniProt O75460); experiment: AUC

stoichiometry N [1]	stoichiometry N [2]	Substance
2	–	IRE1α LD 352LNYL355-GSGS mutant (from UniProt O75460 24-443) (domain or fragment)
–	2	IRE1α LD 312TLPL315-GSGS mutant (from UniProt O75460 24-443) (domain or fragment)
